Key:
[1] = biological target: T1, hPolεCD (DNA polymerase ε catalytic domain, exo-) (Homo sapiens, UniProt Q07864 27-1172, D275N;E277Q;del185-209); assay: BLI; 100 mM NaCl, no dTTP/Mg2+; BLI (Octet K2): 30 mM Tris-Hepes pH 7.8, 100-150 mM NaCl, 2 mM TCEP, 0.002% Tween 20, 23 °C; EMSA: 20 mM Tris-Hepes pH 7.8, 100 mM NaCl, 2% glycerol, 2 mM TCEP, 0.2 mg/mL BSA, room temperature; settings: protein: recombinant; tags: none in final protein (N-terminal His6-Sumo cleaved); label: 5' BiotinTEG on template; template 5' overhang 9 nt and 3' overhang 3 nt
[2] = biological target: T1, hPolεCD (DNA polymerase ε catalytic …); assay: BLI; 125 mM NaCl, no dTTP/Mg2+; BLI (Octet K2): 30 mM Tris-Hepes pH 7.8, 100-150 mM NaCl, 2 mM TCEP, 0.002% Tween 20, 23 °C; EMSA: 20 mM Tris-Hepes pH 7.8, 100 mM NaCl, 2% glycerol, 2 mM TCEP, 0.2 mg/mL BSA, room temperature; settings: protein: recombinant; tags: none in final protein (N-terminal His6-Sumo cleaved); label: 5' BiotinTEG on template; template 5' overhang 9 nt and 3' overhang 3 nt
[3] = biological target: T1, hPolεCD (DNA polymerase ε catalytic …); assay: BLI; 150 mM NaCl, no dTTP/Mg2+; BLI (Octet K2): 30 mM Tris-Hepes pH 7.8, 100-150 mM NaCl, 2 mM TCEP, 0.002% Tween 20, 23 °C; EMSA: 20 mM Tris-Hepes pH 7.8, 100 mM NaCl, 2% glycerol, 2 mM TCEP, 0.2 mg/mL BSA, room temperature; settings: protein: recombinant; tags: none in final protein (N-terminal His6-Sumo cleaved); label: 5' BiotinTEG on template; template 5' overhang 9 nt and 3' overhang 3 nt
[4] = biological target: T1, hPolεCD (DNA polymerase ε catalytic …); assay: BLI; 100 mM NaCl, 50 µM dTTP, 5 mM Mg2+; BLI (Octet K2): 30 mM Tris-Hepes pH 7.8, 100-150 mM NaCl, 2 mM TCEP, 0.002% Tween 20, 23 °C; EMSA: 20 mM Tris-Hepes pH 7.8, 100 mM NaCl, 2% glycerol, 2 mM TCEP, 0.2 mg/mL BSA, room temperature; settings: protein: recombinant; tags: none in final protein (N-terminal His6-Sumo cleaved); label: 5' BiotinTEG on template; template 5' overhang 9 nt and 3' overhang 3 nt
[5] = biological target: T1, hPolεCD (DNA polymerase ε catalytic …); assay: EMSA; 100 mM NaCl, 0.5 µM DNA; active fraction titration (55.4 ± 4.3%); BLI (Octet K2): 30 mM Tris-Hepes pH 7.8, 100-150 mM NaCl, 2 mM TCEP, 0.002% Tween 20, 23 °C; EMSA: 20 mM Tris-Hepes pH 7.8, 100 mM NaCl, 2% glycerol, 2 mM TCEP, 0.2 mg/mL BSA, room temperature; settings: protein: recombinant; tags: none in final protein (N-terminal His6-Sumo cleaved); label: 5' Cy3 on primer; template 5' overhang 5 nt

T1 sequence (Q07864 other isoform, or with tags, fused parts or gaps D275N;E277Q;del185-209): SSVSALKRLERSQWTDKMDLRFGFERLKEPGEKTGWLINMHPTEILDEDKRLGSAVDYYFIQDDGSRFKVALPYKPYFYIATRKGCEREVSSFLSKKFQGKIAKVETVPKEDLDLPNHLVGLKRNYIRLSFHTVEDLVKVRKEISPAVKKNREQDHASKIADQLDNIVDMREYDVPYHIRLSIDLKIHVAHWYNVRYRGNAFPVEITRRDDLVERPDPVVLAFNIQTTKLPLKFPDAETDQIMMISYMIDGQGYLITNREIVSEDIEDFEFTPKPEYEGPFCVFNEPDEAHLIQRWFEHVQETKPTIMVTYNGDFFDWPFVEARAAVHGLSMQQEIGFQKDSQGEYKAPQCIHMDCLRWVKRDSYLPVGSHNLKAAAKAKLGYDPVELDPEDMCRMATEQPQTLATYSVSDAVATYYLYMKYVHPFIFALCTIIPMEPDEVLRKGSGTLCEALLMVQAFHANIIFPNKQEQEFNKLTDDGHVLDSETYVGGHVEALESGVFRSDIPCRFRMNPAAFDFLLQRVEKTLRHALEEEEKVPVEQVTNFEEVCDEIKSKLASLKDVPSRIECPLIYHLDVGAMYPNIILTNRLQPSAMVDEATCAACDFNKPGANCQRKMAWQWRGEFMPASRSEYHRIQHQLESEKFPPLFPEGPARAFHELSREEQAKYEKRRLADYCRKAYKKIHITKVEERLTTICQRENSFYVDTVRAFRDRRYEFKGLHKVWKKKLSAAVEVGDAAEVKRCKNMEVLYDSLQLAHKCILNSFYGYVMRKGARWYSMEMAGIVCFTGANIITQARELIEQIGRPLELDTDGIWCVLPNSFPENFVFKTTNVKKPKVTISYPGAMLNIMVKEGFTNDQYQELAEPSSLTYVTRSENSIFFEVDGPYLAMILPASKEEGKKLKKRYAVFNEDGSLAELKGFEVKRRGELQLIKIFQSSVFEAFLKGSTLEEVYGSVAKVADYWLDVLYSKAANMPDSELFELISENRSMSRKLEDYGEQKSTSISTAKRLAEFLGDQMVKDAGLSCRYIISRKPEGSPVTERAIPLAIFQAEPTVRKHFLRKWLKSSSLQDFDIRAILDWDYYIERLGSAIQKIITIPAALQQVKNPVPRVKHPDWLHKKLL

B1: D11 template:primer (dsDNA)
DNA 1: AATACATAAGCGCTCCAGGCAAT
DNA 2: GCCTGGAGCGC
modifications: primer 3'-terminal 2',3'-dideoxy-C
Kd [1]: 61.4 ± 12 nM
Kd [2]: 532 ± 53 nM
Kd [3]: 1520 ± 91 nM
Kd [4]: 120 ± 11 nM

B2: R6-D5 template:primer (mixed)
DNA: AATACATAAGCGCTCCAGGCAAT
RNA: GCCUGGAGCGC
modifications: primer nt 1-6 RNA, nt 7-11 DNA, 3' ddC
Kd [1]: 69.8 ± 6.4 nM

B3: R4-D7 template:primer (mixed)
DNA: AATACATAAGCGCTCCAGGCAAT
RNA: GCCUGGAGCGC
modifications: primer nt 1-4 RNA, nt 5-11 DNA, 3' ddC
Kd [1]: 58.6 ± 1.3 nM
Kd [4]: 83 ± 3.3 nM

B4: D10-R1 template:primer (mixed)
DNA 1: AATACATAAGCGCTCCAGGCAAT
DNA 2: GCCTGGAGCGC
modifications: primer nt 1-10 DNA, nt 11 3'-deoxy-C (2'-OH)
Kd [1]: 45.6 ± 6.1 nM

B5: EMSA D15 template:primer (dsDNA)
DNA 1: ATTATGGCAGCTCGGAGTCC
DNA 2: GGACTCCGAGCTGCC
binding result [5]: binds

B6: R11 template:primer (DNA:RNA)
DNA: AATACATAAGCGCTCCAGGCAAT
RNA: GCCUGGAGCGC
modifications: RNA primer
Kd [1]: 65.8 ± 8.8 nM

B7: R10-D1 template:primer (mixed)
DNA: AATACATAAGCGCTCCAGGCAAT
RNA: GCCUGGAGCGC
modifications: primer nt 1-10 RNA, nt 11 2',3'-dideoxy-C
Kd [1]: 73 ± 14 nM

B8: R8-D3 template:primer (mixed)
DNA: AATACATAAGCGCTCCAGGCAAT
RNA: GCCUGGAGCGC
modifications: primer nt 1-8 RNA, nt 9-11 DNA, 3' ddC
Kd [1]: 62.5 ± 6.1 nM

Source: publication PMC9205888, “Efficient discrimination against RNA-containing primers by human DNA polymerase ε”
